Here are results for 33 molecules from US11692025 (UNIVERSITY COURT OF THE UNIVERSITY OF ABERDEEN, dated 2023).

Experiment [1] deals with T1, human serum albumin (human, UniProt P02768 25-609).
T1 construct: also called HSA; HAS
Nature of the experiment: screening of the unselected immunized library on HSA.

Experiment [2] addresses T1, human serum albumin. Nature of the experiment: phage display panning on HSA and screening.
For experiment [3], the target named is T2, mouse serum albumin (mouse, UniProt P07724 25-608).
T2 construct: also called MSA
T2 sequence (P07724 25-608 limits assumed): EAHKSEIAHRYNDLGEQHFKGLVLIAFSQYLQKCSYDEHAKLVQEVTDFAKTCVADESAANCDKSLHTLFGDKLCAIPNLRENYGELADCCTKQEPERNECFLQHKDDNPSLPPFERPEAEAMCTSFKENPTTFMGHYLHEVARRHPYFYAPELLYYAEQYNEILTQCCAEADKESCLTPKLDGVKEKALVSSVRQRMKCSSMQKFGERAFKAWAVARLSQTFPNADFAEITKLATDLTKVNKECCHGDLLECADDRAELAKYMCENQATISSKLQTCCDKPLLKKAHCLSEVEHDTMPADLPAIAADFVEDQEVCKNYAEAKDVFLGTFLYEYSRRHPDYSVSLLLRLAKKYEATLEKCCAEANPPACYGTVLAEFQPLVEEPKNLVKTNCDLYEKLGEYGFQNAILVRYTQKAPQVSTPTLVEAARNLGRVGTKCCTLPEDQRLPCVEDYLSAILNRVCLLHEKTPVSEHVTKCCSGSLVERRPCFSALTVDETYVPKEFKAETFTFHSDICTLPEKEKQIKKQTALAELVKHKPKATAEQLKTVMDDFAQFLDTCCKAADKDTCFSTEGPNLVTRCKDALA
The experiment can be described thus: BIAcore, pH 6.0, monomeric 6xHis-tagged VNAR. Background: In SPR one partner is held on a chip, and binding of the other changes the refractive index at the surface.

Experiment [4] deals with T1, human serum albumin. The experiment can be described thus: BIAcore, pH 6.0, monomeric 6xHis-tagged VNAR.
Experiment [5] has as its target T3, rat serum albumin (rat, UniProt P02770 25-608).
T3 construct: also called RSA
The experiment can be described thus: BIAcore, pH 6.0, monomeric 6xHis-tagged VNAR.

Experiment [6] addresses T2, mouse serum albumin. Nature of the experiment: BIAcore, pH 7.4, monomeric 6xHis-tagged VNAR.
Experiment [7] deals with T1, human serum albumin. The experiment can be described thus: BIAcore, pH 7.4, monomeric 6xHis-tagged VNAR.
In experiment [8] the target is T3, rat serum albumin. The experiment can be described thus: BIAcore, pH 7.4, monomeric 6xHis-tagged VNAR.
Experiment [9] has as its target T1, human serum albumin. The experiment can be described thus: phage and periprep ELISA on HSA; purified 6xHis-tagged VNAR. As for the experimental part: The resultant mutational phage display libraries were rescued and selected twice using Nunc Maxisorp immunotubes. Following each pan, two 96-well plates of individual colonies were picked with a QPix2 XT (Genetix, San Jose, Calif., USA). Binding as monoclonal phage and periprep was evaluated by ELISA. All samples were processed with a Perkin Elmer MiniTrak robotic liquid handling system (Waltham, Mass., USA).
Background: In an ELISA, binding on a coated surface is turned into a signal by an enzyme label.

Usually Kd stands for the equilibrium constant for the complex coming apart. A high value points to lower affinity. As usually defined, the koff is the rate constant with which the complex falls apart. Low values mean slow dissociation, high ones fast dissociation. For orientation: kon means the second-order rate constant of association.

Changes are numbered by the printed parent chain.

T3 sequence (P02770 25-608 limits assumed): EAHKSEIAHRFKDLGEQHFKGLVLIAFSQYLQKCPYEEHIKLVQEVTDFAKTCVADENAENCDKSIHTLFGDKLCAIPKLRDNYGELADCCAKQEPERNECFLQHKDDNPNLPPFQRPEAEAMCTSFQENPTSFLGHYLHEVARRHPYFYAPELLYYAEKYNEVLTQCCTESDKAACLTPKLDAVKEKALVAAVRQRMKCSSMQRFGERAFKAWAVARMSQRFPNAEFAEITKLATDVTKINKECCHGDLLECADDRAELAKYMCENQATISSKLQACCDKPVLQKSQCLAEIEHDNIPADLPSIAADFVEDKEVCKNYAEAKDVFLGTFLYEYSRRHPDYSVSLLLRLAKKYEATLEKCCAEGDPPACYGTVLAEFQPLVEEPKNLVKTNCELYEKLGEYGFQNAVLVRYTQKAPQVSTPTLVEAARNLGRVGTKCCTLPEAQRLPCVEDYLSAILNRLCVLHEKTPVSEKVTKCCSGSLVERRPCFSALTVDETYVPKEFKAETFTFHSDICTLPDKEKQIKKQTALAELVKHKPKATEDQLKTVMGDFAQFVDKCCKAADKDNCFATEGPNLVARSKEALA

B1: SEQ ID NO 54 (VNAR)
VNAR: ARVDQTPRTATKETGESLTINCVLTDTSYPLYSTYWYRKNPGSSNKEQISISGRYVESVNKGTKSFSLRIKDLTVADSATYICRAYTIHIKLEQHGAGTVLTVN
notes: clone name not tied to this number; one of the 13 entries may be a consensus
Consider B1, for which the binding result with human serum albumin [1] is “binds”.

B2: SEQ ID NO 33 (VNAR)
VNAR: ARVDQTPRTATKETGESLTINCVLTDTSYPLYSTYWYRKNPGSSNKEQISISGRYVESVNKGTKSFSLRIKDLTVADSATYICRAMGTDSWTGDGAGTVLTVN
notes: clone name not tied to this number
As to B2, the binding result with human serum albumin [2] was “binds”.

B3: SEQ ID NO 50 (VNAR)
VNAR: B2 VNAR with R2S, D4N, Q48R
notes: as for B2
On to B3, for which the binding result with human serum albumin [2] is on record as “binds”.

B4: SEQ ID NO 39 (VNAR)
VNAR: B2 VNAR with A1T, Q48R
notes: as for B2
For the molecule B4, in the experiment with human serum albumin [2], the binding result is “binds”.

B5: SEQ ID NO 48 (VNAR)
VNAR: B2 VNAR with R2S, D4N, G87D, D89S, S90A, W91G, T92V, G93V
notes: as for B2
Regarding B5, the binding result in the experiment with human serum albumin [2] is given as “binds”.

B6: SEQ ID NO 61 (VNAR)
VNAR: B2 VNAR with A79G, A85S, M86I, G87T, D89H, T92S, V99A
notes: as for B1
In the case of B6, the binding result in the experiment with human serum albumin [1] is recorded as “binds”.

B7: SEQ ID NO 40 (VNAR)
VNAR: B2 VNAR with A1T, Q48R, D89N, V99A
notes: as for B2
Take B7: the binding result with human serum albumin [2] is “binds”.

B8: SEQ ID NO 59 (VNAR)
VNAR: B2 VNAR with T25A, M86S, G87D, T88I, D89A, S90M, W91G, G93Y, V99A
notes: as for B1
For the molecule B8, the binding result with human serum albumin [1] is “binds”.

B9: SEQ ID NO 49 (VNAR)
VNAR: B2 VNAR with R2K
notes: as for B2
Take B9: the binding result in the experiment with human serum albumin [2] was “binds”.

B10: SEQ ID NO 56 (VNAR)
VNAR: B2 VNAR with R2S, D4N, T27A, S50P, D89N, S90G
notes: as for B1
For the molecule B10, the binding result in the experiment with human serum albumin [1] is given as “binds”.

B11: SEQ ID NO 62 (other)
chain: B2 VNAR with A1I, E16G, M86L, G87S, D89Y, S90M, W91E, T92A
notes: as for B1
Regarding B11, the binding result in the experiment with human serum albumin [1] was “binds”.

B12: SEQ ID NO 38 (VNAR)
VNAR: B2 VNAR with A1T, S33R
notes: as for B2
In the case of B12, the binding result with human serum albumin [2] was “binds”.

B13: SEQ ID NO 44 (VNAR)
VNAR: B2 VNAR with A1T, Q48R, D89N, S90I
notes: as for B2
For B13, the binding result with human serum albumin [2] is given as “binds”.

B14: SEQ ID NO 42 (VNAR)
VNAR: B2 VNAR with A1T, S33R, D89N
notes: as for B2
As to B14, the binding result in the experiment with human serum albumin [2] is reported as “binds”.

B15: SEQ ID NO 55 (VNAR)
VNAR: B2 VNAR with S44P, Q48R, T88A, D89N, V99A
notes: as for B1
Turning to B15, the binding result in the experiment with human serum albumin [1] is recorded as “binds”.

B16: SEQ ID NO 53 (VNAR)
VNAR: B2 VNAR with M86I, G87T, G93S, V99A
notes: as for B1
Regarding B16, in the experiment with human serum albumin [1], the binding result was “binds”.

B17: SEQ ID NO 63 (VNAR)
VNAR: B2 VNAR with R2S, D4N, S50P, G87D, D89S, S90A, W91G, T92V, G93V
notes: as for B1
For B17, the binding result with human serum albumin [1] was “binds”.

B18: SEQ ID NO 35 (VNAR)
VNAR: B2 VNAR with A1T, D89N, V99A
notes: as for B2
On to B18, for which, in the experiment with human serum albumin [2], the binding result is recorded as “binds”.

B19: SEQ ID NO 43 (VNAR)
VNAR: B2 VNAR with A1T, Q48R, V99A
notes: as for B2
As to B19, the binding result in the experiment with human serum albumin [2] was “binds”.

B20: SEQ ID NO 52 (VNAR)
VNAR: IRVDQTPRTATKETGESLTINCVLTGTVCGMYSTSWSRKNPGRADWERISIGGRYVESVNKGAKSFSLRIRDLTVADSATYCCSAESPPICTSQGIAAVTKYYDGAGTVLTVN
notes: as for B1
Take B20: the binding result with human serum albumin [1] is “binds”.

B21: huE06 v1.1 (VNAR)
VNAR: TRVDQSPSSLSASVGDRVTITCVLTDTSYPLYSTYWYQQKPGSSNKEQISISGRYSESVNKGTKSFTLTISSLQPEDFATYYCRAMGTNIWTGDGAGTKVEIK
notes: Humanized VNAR, tested as monomeric 6xHis-tagged protein; also called humanized E06 v1.1; not shown: 6xHis tag
As to B21, the “Fold change from E06” value with mouse serum albumin [3] was determined as 28.3 fold; with human serum albumin [4] it was 35.6 fold; with rat serum albumin [5] it was 29 fold; with mouse serum albumin [6] it was 59.4 fold; with human serum albumin [7] it was 84.9 fold; with rat serum albumin [8] it was 52 fold. Further, the equilibrium dissociation constant (Kd) with mouse serum albumin [3] worked out at 9.28 nM; with human serum albumin [4], 5.07 nM; with rat serum albumin [5], 9.94 nM; with mouse serum albumin [6] it was 49.2 nM; in the experiment with human serum albumin [7], 16 nM; with rat serum albumin [8], 75.3 nM. Besides, the off-rate (koff) came out at 0.0318 s⁻¹ with mouse serum albumin [3]; 0.0184 s⁻¹ with human serum albumin [4]; 0.031 s⁻¹ in the experiment with rat serum albumin [5]; 0.0414 s⁻¹ with mouse serum albumin [6]; 0.014 s⁻¹ with human serum albumin [7]; 0.0329 s⁻¹ in the experiment with rat serum albumin [8]. Besides, the on-rate (kon) with mouse serum albumin [3] came out at 3.43e+06 M⁻¹ s⁻¹; in the experiment with human serum albumin [4], 3.62e+06 M⁻¹ s⁻¹; with rat serum albumin [5] it was 3.12e+06 M⁻¹ s⁻¹; with mouse serum albumin [6], 841000 M⁻¹ s⁻¹; with human serum albumin [7], 872000 M⁻¹ s⁻¹; in the experiment with rat serum albumin [8], 436000 M⁻¹ s⁻¹.

B22: huE06 v1.10 (VNAR)
VNAR: B21 VNAR with Q38R, Q39K, K40N
notes: Humanized VNAR, tested as monomeric 6xHis-tagged protein; also called hE06v1.10; humanized E06 v1.10; not shown: 6xHis tag
Regarding B22, the “Fold change from E06” value with mouse serum albumin [3] was found to be 12.2 fold; in the experiment with human serum albumin [4] it was 12.7 fold; with rat serum albumin [5] it was 12.2 fold; with mouse serum albumin [6], 28.1 fold; with human serum albumin [7], 33.9 fold; in the experiment with rat serum albumin [8], 25.4 fold. In addition, the dissociation constant Kd with mouse serum albumin [3] stood at 3.98 nM; with human serum albumin [4] it was 1.81 nM; in the experiment with rat serum albumin [5], 4.17 nM; with mouse serum albumin [6], 23.2 nM; with human serum albumin [7], 6.4 nM; with rat serum albumin [8], 36.8 nM. The dissociation rate constant (koff) with mouse serum albumin [3] turned out to be 0.0125 s⁻¹; with human serum albumin [4] it was 0.00637 s⁻¹; with rat serum albumin [5] it was 0.0152 s⁻¹; in the experiment with mouse serum albumin [6], 0.00959 s⁻¹; with human serum albumin [7], 0.00357 s⁻¹; with rat serum albumin [8], 0.0165 s⁻¹. Moreover, the on-rate (kon) in the experiment with mouse serum albumin [3] was found to be 3.14e+06 M⁻¹ s⁻¹; with human serum albumin [4], 3.52e+06 M⁻¹ s⁻¹; in the experiment with rat serum albumin [5], 3.65e+06 M⁻¹ s⁻¹; with mouse serum albumin [6], 412000 M⁻¹ s⁻¹; with human serum albumin [7], 559000 M⁻¹ s⁻¹; with rat serum albumin [8], 449000 M⁻¹ s⁻¹.

B23: AG11 (VNAR)
chain: B21 VNAR with Q38R, Q39K, K40N, I102T
notes: Variant of huE06 v1.10 from error-prone PCR
For the molecule B23, in the experiment with human serum albumin [9], the binding result was “binds”.

B24: AD4 (VNAR)
VNAR: B21 VNAR with Q38R, Q39K, K40N, I51M, G62S
notes: as for B23
For B24, the binding result in the experiment with human serum albumin [9] was “binds”.

B25: BB11 (VNAR)
VNAR: B21 VNAR with Q38R, Q39K, K40N, G87A
notes: as for B23
On to B25, for which the binding result with human serum albumin [9] is given as “binds”.

B26: BC3 (VNAR)
VNAR: B21 VNAR with Q38R, Q39K, K40N, S44N
notes: as for B23
As to B26, the binding result in the experiment with human serum albumin [9] is listed as “binds”.

B27: AH7 (VNAR)
VNAR: B21 VNAR with S6T, Q38R, Q39K, K40N, F66S
notes: as for B23
B27: the binding result with human serum albumin [9] is listed as “binds”.

B28: BB10 (VNAR)
VNAR: B21 VNAR with Q38R, Q39K, K40N, I90F
notes: as for B23
As to B28, in the experiment with human serum albumin [9], the binding result is “binds”.

B29: AC9 (VNAR)
VNAR: B21 VNAR with Q38R, Q39K, K40N, F66S
notes: as for B23
Consider B29, for which the binding result in the experiment with human serum albumin [9] is listed as “binds”.

B30: BA11 (VNAR)
VNAR: B21 VNAR with Q38R, Q39K, K40N, F78S, G87S
notes: as for B23
Consider B30, for which the binding result with human serum albumin [9] was “binds”.

B31: SEQ ID NO 57 (VNAR)
VNAR: AKVDQTPRTTTKETGESLTINCVLTETSYGLSSTSWFQKNPGTTDWERMSIGGRYVESVNTGAKSFSLRIKDLTVADSATYYCKAHAGYGVWNRGLQWRGYDQYDGAGTVLTVN
notes: as for B1
On to B31, for which the binding result with human serum albumin [1] is reported as “binds”.

B32: SEQ ID NO 58 (VNAR)
VNAR: TRVDQTPRTATKETGESLTINCVLTDTSYPLYSTYWYRKNPGSSNKEQISISGRYVESVNKGTKSFSLRIKDLTVADSATYICRAYTPGREDYGAGTVLTVN
notes: as for B1
For the molecule B32, in the experiment with human serum albumin [1], the binding result is “binds”.

B33: SEQ ID NO 60 (VNAR)
VNAR: ASVNQTPRTATKETGESLTINCVLTGTSCSLYSTSWFRKNPGTTDWERISIGGRYVESVNKGAKSFSLRIKDLTVADSATYYCKAEKGRKGSAITSCRRSSYYDGAGTVLTVN
notes: as for B1
In the case of B33, the binding result with human serum albumin [1] is on record as “binds”.
